No end group written: not given here.
T1: HLA-DR molecule encoded by the allele DRB1*1301 (human)
T1 chain 1: not shown
T1 chain 2: not shown

T2: HLA-DR molecule encoded by the allele DRB3*0101 (human)
T2 chain 1: not shown
T2 chain 2: not shown

T3: HLA-DR molecule encoded by the allele DRB4*0101 (human)
T3 chain 1: not shown
T3 chain 2: not shown

B1: Nef3 peptide (positions 37-71 of the HIV-1 Nef protein, Bru strain), P03406 37-71 (peptide)
peptide: LEKHGAITSSNTAATNAACAWLEAQEEEEVGFPVT
modifications: not checked
B2: Nef9 peptide (positions 132-147 of the HIV-1 Nef protein, Bru strain), P03406 132-147 (peptide)
peptide: GVRYPLTFGWCYKLVP
modifications: not checked
B3: Nef11 peptide (positions 155-185 of the HIV-1 Nef protein, Bru strain), P03406 155-185 (peptide)
peptide: EANKGENTSLLHPVSLHGMDDPEREVLEWRF
modifications: not checked
B4: Nef13.4 peptide (positions 187-201 of the HIV-1 Nef protein, Bru strain), P03406 187-201 (peptide)
peptide: SRLAFHHVARELHPE
modifications: not checked
B5: Nef1 peptide (positions 1-36 of the HIV-1 Nef protein, Bru strain), P03406 1-36 (peptide)
peptide: MGGKWSKSSVVGWPTVRERMRRAEPAADGVGAASRD
modifications: not checked
B6: Nef10.4 peptide (positions 143-157 of the HIV-1 Nef protein, Bru strain), P03406 143-157 (peptide)
peptide: YKLVPVEPDKVEEAN
modifications: not checked
B7: Nef10 peptide (positions 137-168 of the HIV-1 Nef protein, Bru strain), P03406 137-168 (peptide)
peptide: LTFGWCYKLVPVEPDKVEEANKGENTSLLHPV
modifications: not checked
B8: Nef13.5 peptide (positions 189-203 of the HIV-1 Nef protein, Bru strain), P03406 189-203 (peptide)
peptide: LAFHHVARELHPEYF
modifications: not checked
B9: Nef10.2 peptide (positions 139-153 of the HIV-1 Nef protein, Bru strain), P03406 139-153 (peptide)
peptide: FGWCYKLVPVEPDKV
modifications: not checked
B10: Nef13.6 peptide (positions 191-205 of the HIV-1 Nef protein, Bru strain), P03406 191-205 (peptide)
peptide: FHHVARELHPEYFKN
modifications: not checked
B11: Nef1.1 peptide (positions 3-17 of the HIV-1 Nef protein, Bru strain), P03406 3-17 (peptide)
peptide: GKWSKSSVVGWPTVR
modifications: not checked
B12: Nef10.3 peptide (positions 141-155 of the HIV-1 Nef protein, Bru strain), P03406 141-155 (peptide)
peptide: WCYKLVPVEPDKVEE
modifications: not checked
B13: Nef7 peptide (positions 113-128 of the HIV-1 Nef protein, Bru strain), P03406 113-128 (peptide)
peptide: WIYHTQGYFPDWQNYT
modifications: not checked
B14: Nef13 peptide (positions 182-198 of the HIV-1 Nef protein, Bru strain), P03406 182-198 (peptide)
peptide: EWRFDSRLAFHHVAREL
modifications: not checked
B15: Nef10.1 peptide (positions 137-151 of the HIV-1 Nef protein, Bru strain), P03406 137-151 (peptide)
peptide: LTFGWCYKLVPVEPD
modifications: not checked
B16: Nef12 peptide (positions 175-190 of the HIV-1 Nef protein, Bru strain), P03406 175-190 (peptide)
peptide: DPEREVLEWRFDSRLA
modifications: not checked
B17: Nef13.1 peptide (positions 178-192 of the HIV-1 Nef protein, Bru strain), P03406 178-192 (peptide)
peptide: REVLEWRFDSRLAFH
modifications: not checked
B18: Nef13.3 peptide (positions 183-197 of the HIV-1 Nef protein, Bru strain), P03406 183-197 (peptide)
peptide: WRFDSRLAFHHVARE
modifications: not checked
B19: Nef13.2 peptide (positions 181-195 of the HIV-1 Nef protein, Bru strain), P03406 181-195 (peptide)
peptide: LEWRFDSRLAFHHVA
modifications: not checked
B20: Nef1.5 peptide (positions 18-32 of the HIV-1 Nef protein, Bru strain), P03406 18-32 (peptide)
peptide: ERMRRAEPAADGVGA
modifications: not checked
B21: Nef1.4 peptide (positions 14-28 of the HIV-1 Nef protein, Bru strain), P03406 14-28 (peptide)
peptide: PTVRERMRRAEPAAD
modifications: not checked
B22: Nef4.7 peptide (positions 83-97 of the HIV-1 Nef protein, Bru strain), P03406 83-97 (peptide)
peptide: AAVDLSHFLKEKGGL
modifications: not checked
B23: Nef10.5 peptide (positions 146-160 of the HIV-1 Nef protein, Bru strain), P03406 146-160 (peptide)
peptide: VPVEPDKVEEANKGE
modifications: not checked
B24: Nef5 peptide (positions 86-100 of the HIV-1 Nef protein, Bru strain), P03406 86-100 (peptide)
peptide: DLSHFLKEKGGLEGL
modifications: not checked
B25: Nef10.6 peptide (positions 151-165 of the HIV-1 Nef protein, Bru strain), P03406 151-165 (peptide)
peptide: DKVEEANKGENTSLL
modifications: not checked
B26: Nef6 peptide (positions 100-114 of the HIV-1 Nef protein, Bru strain), P03406 100-114 (peptide)
peptide: LIHSQRRQDILDLWI
modifications: not checked
B27: Nef1.2 peptide (positions 8-22 of the HIV-1 Nef protein, Bru strain), P03406 8-22 (peptide)
peptide: SSVVGWPTVRERMRR
modifications: not checked
B28: Nef8 peptide (positions 117-132 of the HIV-1 Nef protein, Bru strain), P03406 117-132 (peptide)
peptide: TQGYFPDWQNYTPGPG
modifications: not checked
B29: Nef1.3 peptide (positions 11-25 of the HIV-1 Nef protein, Bru strain), P03406 11-25 (peptide)
peptide: VGWPTVRERMRRAEP
modifications: not checked
B30: B1 21-36 peptide, nonbiotinylated (peptide)
peptide: TERVRLVTRHIYNREE
modifications: not fully specified
B31: Nef2 peptide (positions 25-39 of the HIV-1 Nef protein, Bru strain), P03406 25-39 (peptide)
peptide: PAADGVGAASRDLEK
modifications: not checked

The binders below were run against HLA-DR molecule encoded by the allele DRB1*0701 (human) (assay: competition ELISA vs biotinylated YKL).

Binder | IC50 [nM]
B1 | 3000
B2 | 5500
B3 | 3750
B4 | 225
B5 | 40
B6 | 2250
B7 | 65
B8 | 250
B9 | 120
B10 | 2500
B11 | 48
B12 | 250
B13 | 4000
B14 | 150
B15 | 650
B16 | 700
B17 | 350
B18 | 900
B19 | 933

Each binder was assayed against HLA-DR molecule encoded by the allele DRB1*0101 (human) (assay: competition ELISA vs biotinylated HA 306-318).

Binder | IC50 [nM]
B1 | 2500
B2 | 8.5
B20 | 2750
B3 | 2000
B5 | 700
B21 | 1400
B6 | 9000
B7 | 650
B22 | 500
B9 | 85
B11 | 1250
B23 | 550
B12 | 850
B14 | 5000
B15 | 150
B24 | 6000

Each binder was assayed against HLA-DR molecule encoded by the allele DRB5*0101 (human) (assay: competition ELISA vs biotinylated HA 306-318).

Binder | IC50 [nM]
B2 | 8000
B25 | 1500
B3 | 3000
B4 | 300
B5 | 400
B7 | 250
B8 | 600
B22 | 3250
B9 | 900
B10 | 8000
B12 | 1500
B14 | 10
B15 | 4500
B24 | 8000
B18 | 15
B19 | 6

These binders were tested against HLA-DR molecule encoded by the allele DRB1*1101 (human) (assay: competition ELISA vs biotinylated HA 306-318).

Binder | IC50 [nM]
B1 | 2000
B3 | 3000
B4 | 6
B26 | 3000
B5 | 550
B21 | 1250
B7 | 45
B8 | 8
B22 | 7500
B9 | 250
B10 | 550
B11 | 1750
B12 | 350
B14 | 48
B15 | 95
B16 | 125
B17 | 8
B18 | 11
B19 | 18
B27 | 7500

What follows are binders tested against HLA-DR molecule encoded by the allele DRB1*0401 (human) (assay: competition ELISA vs biotinylated HA 306-318).

Binder | IC50 [nM]
B1 | 70
B5 | 250
B6 | 2750
B7 | 150
B9 | 250
B11 | 700
B23 | 2000
B12 | 250
B14 | 3250
B28 | 8000
B15 | 2000
B16 | 2500

Target: T1, HLA-DR molecule encoded by the allele …
Experiment: competition ELISA vs biotinylated B1 21-36

Binder | IC50 [nM]
B4 | 350
B5 | 325
B21 | 750
B8 | 600
B10 | 3000
B11 | 3000
B29 | 700
B14 | 750
B17 | 867
B18 | 250
B19 | 350
B27 | 700

Target: T2, HLA-DR molecule encoded by the allele …
Experiment: competition ELISA vs biotinylated Lol 191-210

Binder | IC50 [nM]
B7 | 3500
B13 | 75
B14 | 250
B28 | 120
B16 | 145
B17 | 28
B18 | 5000
B19 | 60

Each binder was assayed against HLA-DR molecule encoded by the allele DRB1*1501 (human) (assay: competition ELISA vs biotinylated A3 152-166).

Binder | IC50 [nM]
B2 | 1500
B3 | 50
B26 | 1750
B5 | 40
B7 | 1250
B11 | 150
B13 | 9000
B16 | 13
B27 | 200

Target: T3, HLA-DR molecule encoded by the allele …
Experiment: competition ELISA vs biotinylated E2/E168

Binder | IC50 [nM]
B1 | 8000
B3 | 450
B26 | 1750
B5 | 2500
B6 | 1730
B7 | 55
B9 | 605
B12 | 1030
B14 | 6330
B15 | 2200
B16 | 275

Target: T1, HLA-DR molecule encoded by the allele …
Experiment: competition ELISA, nonbiotinylated peptide vs its biotinylated form

Binder | IC50 [nM]
B30 | 330

The binders below were run against HLA-DR molecule encoded by the allele DRB1*0301 (human) (assay: competition ELISA vs biotinylated MT 2-16).

Binder | IC50 [nM]
B6 | 1470
B7 | 175
B8 | 1470
B10 | 700
B23 | 2500
B31 | 4250
B14 | 55
B16 | 3500
B17 | 125
B18 | 567
B19 | 73
